Changes are numbered by the printed parent chain. Numbers in names are those of the source.
B1: lamin A/C Ig-fold domain (aa 411-566) (domain or fragment)
chain: GGGSVTKKRKLESTESRSSFSQHARTSGRVAVEEVDEEGKFVRLRNKSNEDQSMGNWQIKRQNGDDPLLTYRFPPKFTLKAGQVVTIWAAGAGATHSPPTDLVWKAQNTWGCGNSLRTALINSTGEEVAMRKLVRSVTVVEDDEDEDGDDLLHHHH
B2: BAF WT (barrier-to-autointegration factor, purified cysteine-free construct) (natural protein, human, UniProt O75531 1-89, looked up)
chain: GTTSQKHRDFVAEPMGEKPVGSLAGIGEVLGKKLEERGFDKAYVVLGQFLVLKKDEDLFREWLKDTAGANAKQSRDAFGALREWADAFL
notes: human barrier-to-autointegration factor (BAF, 89 amino acids); after tag cleavage the first residue is G instead of M; gene synthesized by Genscript in pETM13; also called BAF WT dimer; not shown: His8, N-terminal, cleaved
B3: BAF A12T (barrier-to-autointegration factor A12T, purified cysteine-free construct) (natural protein, human, UniProt O75531 1-89, looked up)
chain: B2 chain with A12T
notes: human barrier-to-autointegration factor (BAF, 89 amino acids); made by mutagenesis of the BAF WT expression vector (all cysteines to alanine, M1G after tag cleavage) with the NGPS mutation A12T; PDB 6GHD holds the parent (BAF WT); PDB 7Z21 holds this mutant; also called BAF A12T dimer; not shown: His8, N-terminal, cleaved

Columns and labels:
[1] = target: T1, BAF A12T (barrier-to-autointegration factor A12T, purified cysteine-free construct) (human, UniProt O75531 1-89, M1G | A12T | C67A | C77A | C80A | C85A); assay: ITC; experiment 1
T1 sequence: B2 chain with A12T

[2] = target: T2, BAF WT (barrier-to-autointegration factor, purified cysteine-free construct) (human, UniProt O75531 1-89, M1G | C67A | C77A | C80A | C85A); assay: ITC; experiment 1
T2 sequence: B2 chain

[3] = target: T1, BAF A12T (barrier-to-autointegration …); assay: ITC; experiment 2
[4] = target: T2, BAF WT (barrier-to-autointegration …); assay: ITC; experiment 2
[5] = target: T1, BAF A12T (barrier-to-autointegration …); assay: ITC
[6] = target: T2, BAF WT (barrier-to-autointegration …); assay: ITC
[7] = target: T3, lamin A/C Ig-fold domain (aa 411-566) (human, UniProt P02545 411-566); assay: NMR titration; 2D 1H-15N HSQC of 15N-labelled lamin A/C Ig-fold (80 uM; 160 uM in one sample) with unlabelled BAF at ratios 1:1 and 1:2; 50 mM HEPES pH 7.4, 150 mM NaCl, 293 K; peak intensity ratios I/Io; conditions: both partners purified
T3 construct: human lamin A/C fragment from aa 411 to aa 566 (Ig-fold domain); 15N-labelled (grown in M9) for the NMR experiments; also called Igfold domain of lamin A/C; source: E. coli BL21* (DE3), purified (glutathione beads, thrombin cleavage, gel filtration)
T3 sequence (looked up): B1 chain

[8] = target: T3, lamin A/C Ig-fold domain (aa 411-566); assay: ITC; VP-ITC; 100 or 200 uM lamin A/C Ig-fold in the syringe, 20 uM BAF WT or 40 uM BAF A12T in the cell; 50 mM Hepes pH 7.4, 150 mM NaCl, 288 K; stoichiometry set to 0.5 in the fit; each experiment done twice; conditions: both partners purified
[9] = target: the molecule itself; assay: crystal structure; BAF A12T-lamin A/C Ig-fold complex recovered after ITC (50 mM Hepes pH 7.4, 150 mM NaCl), about 20 mg/ml; sitting drop, 0.1 M bicine pH 9, 3 M ammonium sulfate; 1.6 A

| Binder | Kd [1] | Kd [2] | Kd [3] | Kd [4] | Kd [5] | Kd [6] | percent of the initial NMR signals of the Ig-fold left at 1:1 ratio [7] | percent of the initial NMR signals of the Ig-fold left at 1:2 ratio [7] | Kd [8] | stoichiometry N [9] | decrease of NMR signal intensity of the Ig-fold at 1:1 ratio [7] | decrease of NMR signal intensity of the Ig-fold at 1:2 ratio [7] |
| --- | --- | --- | --- | --- | --- | --- | --- | --- | --- | --- | --- | --- |
| B1 | 24 µM | 2300 nM | 42 µM | 3.1 µM | 24 µM | 2300 nM | – | – | – | – | – | – |
| B2 | – | – | – | – | – | – | 27% | 4% | 2.7 ± 1.2 µM | – | – | – |
| B3 | – | – | – | – | – | – | – | – | 33 ± 4 µM | 2 | 43% | 66% |

Reference: article PMC9458464, “The BAF A12T mutation disrupts lamin A/C interaction, impairing robust repair of nuclear envelope ruptures in Nestor–Guillermo progeria syndrome cells” (Nucleic Acids Research, 2022)
